From the supplement of paper PMC7877785
± gives the uncertainty stated by the source.

Assay: self-splicing fitness, log relative to wild type (ln ratio); higher = more splicing; Tetrahymena group I intron in knt gene, E. coli kanamycin selection, DiMSum; sequences stand for … in CUCUCU…GGAGGGAAAAGUUAUCAGGCAUGCACCUGGUAGCUAGUCUUUAAACCAAUAGAUUGCAUCGGUUUAAAAGGCAAGACCGUCAAAUUGCGGGAAAGGGGUCAACAGCCGUUCAGUACCAAGUCUCAGGGGAAACUUUGAGAUGGCCUUGCAAAGGGUAUGGUAAUAAGCUGACGGACAUGGUCCUAACCACGCAGCCAAGUCCUAAGUCAACAGAUCUUCUGUUGAUAUGGAUGCAGUUCACAGACUAAAUGUCGGUCGGGGAAGAUGUAUUCUUCUCAUAAGAUAUAGUCGGACCUCUCCUUAAUGGGAGCUAGCGGAUGAAGUGAUGCAACACUGGAGCCGCUGGGAACUAAUUUGUAUGCGAAAGUAUAUUGAUUAGUUUUGGAGUACUCGUGGUCG
Procedure, shortened: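 Pooled colonies went to amplicon sequencing on an Illumina HiSeq 2500 after six replicate transformations. The plates were LB agar with 100 μg/mL carbenicillin, 50 μM IPTG and 0.2% rhamnose, with or without 25 μg/mL kanamycin, incubated overnight at 37°C or 30°C. The E. coli BL21(DE3) library had all eight P1ex-region intron nucleotides randomised, the intron placed in the knt kanamycin-resistance gene on pET-22b(+). DiMSum fitness is the error-weighted combination of replicate fold changes, kanamycin against none, normalised to wild type.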

Sequence: GCUGAGCAAUAUUACGUGCA
- self-splicing fitness (ln) (30 °C): -1.81 ± 0.19
- self-splicing fitness (ln) (37 °C): -0.958 ± 0.19

Sequence: UUUAAGCAAUAUUACGGACU
- self-splicing fitness (ln) (30 °C): -1.59 ± 0.14
- self-splicing fitness (ln) (37 °C): -0.921 ± 0.13

Sequence: AAGGAGCAAUAUUACGCAAU
- self-splicing fitness (ln) (30 °C): -2.67 ± 0.17
- self-splicing fitness (ln) (37 °C): -1.71 ± 0.19

Sequence: GAUAAGCAAUAUUACGUGAU
- self-splicing fitness (ln) (30 °C): -2.21 ± 0.12
- self-splicing fitness (ln) (37 °C): -0.957 ± 0.12

Sequence: UUGGAGCAAUAUUACGUGGU
- self-splicing fitness (ln) (30 °C): -2.84 ± 0.36
- self-splicing fitness (ln) (37 °C): -2.56 ± 0.32

Sequence: CCAGAGCAAUAUUACGCUAC
- self-splicing fitness (ln) (37 °C): -1.72 ± 0.33

Sequence: UGUCAGCAAUAUUACGCCAU
- self-splicing fitness (ln) (30 °C): -1.79 ± 0.18
- self-splicing fitness (ln) (37 °C): -1.98 ± 0.16

Sequence: UCAUAGCAAUAUUACGGGAU
- self-splicing fitness (ln) (30 °C): -3.11 ± 0.18
- self-splicing fitness (ln) (37 °C): -2.87 ± 0.28

Sequence: CGGGAGCAAUAUUACGAGUG
- self-splicing fitness (ln) (30 °C): -3.61 ± 0.24
- self-splicing fitness (ln) (37 °C): -1.61 ± 0.2

Sequence: CUAAAGCAAUAUUACGUCUG
- self-splicing fitness (ln) (30 °C): 0.155 ± 0.049
- self-splicing fitness (ln) (37 °C): 0.458 ± 0.071

Sequence: AGCGAGCAAUAUUACGAGCU
- self-splicing fitness (ln) (30 °C): -3.17 ± 0.24
- self-splicing fitness (ln) (37 °C): -2.49 ± 0.22

Sequence: UACCAGCAAUAUUACGUGGG
- self-splicing fitness (ln) (30 °C): -3.76 ± 0.11
- self-splicing fitness (ln) (37 °C): -2.52 ± 0.1

Sequence: GUUAAGCAAUAUUACGAUUC
- self-splicing fitness (ln) (30 °C): 0.0872 ± 0.085
- self-splicing fitness (ln) (37 °C): -0.608 ± 0.11

Sequence: AAUAAGCAAUAUUACGAAGC
- self-splicing fitness (ln) (30 °C): -3.57 ± 0.43

Sequence: UGGGAGCAAUAUUACGGCAC
- self-splicing fitness (ln) (37 °C): -0.43 ± 0.35

Sequence: CACUAGCAAUAUUACGAAAG
- self-splicing fitness (ln) (30 °C): -1.23 ± 0.062
- self-splicing fitness (ln) (37 °C): -0.136 ± 0.084

Sequence: ACAUAGCAAUAUUACGUGCG
- self-splicing fitness (ln) (30 °C): -1.05 ± 0.064
- self-splicing fitness (ln) (37 °C): -0.527 ± 0.081

Sequence: CUUCAGCAAUAUUACGGUUU
- self-splicing fitness (ln) (30 °C): -3.8 ± 0.15
- self-splicing fitness (ln) (37 °C): -2.55 ± 0.13

Sequence: UCAUAGCAAUAUUACGACCG
- self-splicing fitness (ln) (30 °C): -1.36 ± 0.16
- self-splicing fitness (ln) (37 °C): -0.325 ± 0.22

Sequence: CGAAAGCAAUAUUACGCUCC
- self-splicing fitness (ln) (30 °C): -1.14 ± 0.18
- self-splicing fitness (ln) (37 °C): -1.11 ± 0.21

Sequence: GAUCAGCAAUAUUACGACAC
- self-splicing fitness (ln) (30 °C): 0.702 ± 0.14
- self-splicing fitness (ln) (37 °C): 0.591 ± 0.17

Sequence: UCAAAGCAAUAUUACGCCAA
- self-splicing fitness (ln) (30 °C): -2.7 ± 0.28
- self-splicing fitness (ln) (37 °C): -2.12 ± 0.37

Sequence: UACCAGCAAUAUUACGCGGG
- self-splicing fitness (ln) (30 °C): -3.61 ± 0.21
- self-splicing fitness (ln) (37 °C): -1.31 ± 0.17

Sequence: UACCAGCAAUAUUACGCGAC
- self-splicing fitness (ln) (30 °C): -3.1 ± 0.11
- self-splicing fitness (ln) (37 °C): -1.58 ± 0.12

Sequence: AAUCAGCAAUAUUACGGCCG
- self-splicing fitness (ln) (30 °C): -0.87 ± 0.12
- self-splicing fitness (ln) (37 °C): 0.00722 ± 0.18

Sequence: AUAGAGCAAUAUUACGUAGA
- self-splicing fitness (ln) (30 °C): -3.41 ± 0.25
- self-splicing fitness (ln) (37 °C): -2.52 ± 0.24

Sequence: GUGGAGCAAUAUUACGCUCC
- self-splicing fitness (ln) (30 °C): -1.83 ± 0.35

Sequence: AUUGAGCAAUAUUACGCGAC
- self-splicing fitness (ln) (30 °C): -3.45 ± 0.3
- self-splicing fitness (ln) (37 °C): -1.2 ± 0.24

Sequence: AUGGAGCAAUAUUACGUUGC
- self-splicing fitness (ln) (30 °C): -3.34 ± 0.4
- self-splicing fitness (ln) (37 °C): -2.22 ± 0.42

Sequence: AUCCAGCAAUAUUACGACAG
- self-splicing fitness (ln) (30 °C): -3.47 ± 0.14
- self-splicing fitness (ln) (37 °C): -1.75 ± 0.19

Sequence: GGAUAGCAAUAUUACGAGCU
- self-splicing fitness (ln) (30 °C): -0.723 ± 0.19
- self-splicing fitness (ln) (37 °C): -0.744 ± 0.14

Sequence: CGUCAGCAAUAUUACGUUCG
- self-splicing fitness (ln) (30 °C): -1.45 ± 0.068
- self-splicing fitness (ln) (37 °C): -0.148 ± 0.096

Sequence: AAUUAGCAAUAUUACGCUGC
- self-splicing fitness (ln) (37 °C): -2.79 ± 0.4

Sequence: CUUGAGCAAUAUUACGGCGG
- self-splicing fitness (ln) (30 °C): -1.13 ± 0.1
- self-splicing fitness (ln) (37 °C): -0.746 ± 0.14

Sequence: GAACAGCAAUAUUACGUUAC
- self-splicing fitness (ln) (30 °C): -2.53 ± 0.14
- self-splicing fitness (ln) (37 °C): -1.32 ± 0.16

Sequence: CCAUAGCAAUAUUACGCGUG
- self-splicing fitness (ln) (30 °C): -2.23 ± 0.095
- self-splicing fitness (ln) (37 °C): -0.856 ± 0.085

Sequence: UAGCAGCAAUAUUACGGACA
- self-splicing fitness (ln) (30 °C): -0.821 ± 0.11
- self-splicing fitness (ln) (37 °C): -0.11 ± 0.13

Sequence: GGACAGCAAUAUUACGUGGC
- self-splicing fitness (ln) (30 °C): -3.02 ± 0.26
- self-splicing fitness (ln) (37 °C): -0.384 ± 0.16

Sequence: CUCUAGCAAUAUUACGAUCA
- self-splicing fitness (ln) (30 °C): -2.28 ± 0.23
- self-splicing fitness (ln) (37 °C): -2.58 ± 0.33
